The target of this assay is microtubules of purified bovine brain tubulin (bovine) (UniProt Q6B856). Put plainly: optical trap rupture force assay; kinetochores held on beads by α-penta-His antibody; dynamic microtubules grown from coverslip-anchored GMPCPP seeds; force ramp 0.25 pN/s; 23 °C; BRB80.

On to “purified native K. marxianus kinetochores (from UniProt A0ABX6F0Z3 1-547; A0ABX6F2N8 1-203; A0ABX6ES48 1-179; A0ABX6ET36 1-377) (complex)”, for which the median rupture force is 7.5 pN. As for “purified native S. cerevisiae kinetochores (from UniProt P40568 1-576) (complex)”, the figure is 7.2 pN.

Source of the values: paper PMC11387133.
